Molecular target: His-Tagged rhFc(gamma) receptor I (recombinant human Fc(gamma)R-I; Acro Biosystems, catalog# FCA-H52H1) (human)
Assay: ELISA, control IgG coated, His-tagged rhFc(gamma)RI in solution, anti-His-HRP

Chain of His-Tagged rhFc(gamma) receptor I (recombinant human Fc(gamma)R-I; Acro Biosystems, catalog# FCA-H52H1) (human) (P12314 16-292): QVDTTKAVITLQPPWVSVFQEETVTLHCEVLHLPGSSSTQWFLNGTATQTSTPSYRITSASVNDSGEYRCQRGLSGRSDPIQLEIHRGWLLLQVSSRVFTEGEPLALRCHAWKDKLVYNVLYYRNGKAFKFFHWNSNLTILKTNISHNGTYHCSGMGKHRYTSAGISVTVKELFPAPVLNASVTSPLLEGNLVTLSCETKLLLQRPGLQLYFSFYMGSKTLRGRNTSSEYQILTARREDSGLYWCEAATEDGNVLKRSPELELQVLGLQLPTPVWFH

OD450 at 222 ng/ml Fc(gamma) RI: 0.686 OD450
Substance: Dog IgG, Control Rockland-Inc, Cat# 004-0102-005 (antibody)

— patent publication US20260035433A1
